Reference: paper PMC12718106

How the values were obtained:
[1] = target: natural Ara h 1 protein (peanut (Arachis hypogaea)); experiment: native gel or EMSA; native-PAGE of the purified allergen, nondenaturing; oligomeric state from the estimated molecular mass (Fig. S1)
[2] = target: recombinant Ara h 1 protein with N-terminal His-tag (peanut (Arachis hypogaea)); experiment: as above

“natural Ara h 1 protein (natural protein)” was tested, and the stoichiometry N [1] was 3.
Substance “recombinant Ara h 1 protein with N-terminal His-tag (natural protein)” has a stoichiometry N [2] of 3.
